In paper PMC12173652:

Target: epidermal growth factor receptor (EGFR) (human (endogenous in HeLa)) (UniProt P00533)

pIII::EGF fusion displayed on the helper phage M13SW7-EGF (epidermal growth factor, GGGS linker, M13 minor coat protein pIII) (from UniProt P69168 19-424)
fold difference in luciferase expression (EGF^+/EGF^−), A549, mini phagemid, +TurboFect, 96 h: 9.96 fold
fold difference in luciferase expression (EGF^+/EGF^−), HeLa, full phagemid, +TurboFect, 96 h: 261 fold
fold difference in luciferase expression (EGF^+/EGF^−), HeLa, mini phagemid, +TurboFect, 96 h: 705 fold
fold difference in luciferase expression (EGF^+/EGF^−), HeLa, mini phagemid, −TurboFect, 96 h: 25.6 fold
fold difference in luciferase expression (EGF^+/EGF^−), MRC-5, full phagemid, −TurboFect, 96 h: 4.14 fold
fold difference in luciferase expression (EGF^+/EGF^−), MRC-5, mini phagemid, +TurboFect, 96 h: 5.73 fold
